{
  "source": "patent US6034062A",
  "about": "“Bone morphogenetic protein (BMP)-9 compositions and their uses” (Genetics Institute, Inc., priority 1997, dated 2000)",
  "molecules": {"B1": {"name": "BMP-9: recombinant human bone morphogenetic protein-9, mature amino acids #1-#110 of SEQ ID NO:9, expressed in CHO cells (protein)", "chain": "TRECSRSCPRTAPQRQVRAVTRRTRMAHVAAGSTLARRKRSAGAGSHCQKTSLRVNFEDIGWDSWIIAPKEYEAYECKGGCFFPLADDVTPTKHAIVQTLVHLKFPTKVG", "modifications": "125I-iodinated as tracer; unlabelled BMP-9 used as the displacing ligand"}},
  "key": {"[1]": {"tested_on": "Articular cartilage explants from calf carpal joints", "assay": "Articular cartilage assay (proteoglycan synthesis, sulfate incorporation)", "type": "cell-based", "description": "The effect of BMP-9 on articular cartilage proteoglycan and DNA synthesis is assayed to determine if BMP-9 is involved in the regulation of metabolism of differentiated articular cartilage.\nArticular cartilage explants from calf carpal joints are maintained in DMEM with 50 μg/ml ascorbate, 4 mM glutamine and antibiotics for 3 days. Cytokines (rhBMP-2, rhBMP-4, rhBMP-6 and rhBMP-9, IGF-1, bFGF (1-1000 ng/ml), and TGFβ (1-100 ng/ml)) are added to the medium and culture is continued for 3 more days. Medium is changed daily. Twenty-four hours prior to harvest, explants are pulsed with 50 μCi/ml ^35 SO4 or 25 μCi/ml ^3 H-thymidine. Explants are solubilized and separation of free isotope is performed by gel chromatography. Total DNA of each explant is measured by a spectrophotometric assay."}, "[2]": {"tested_on": "NRK-52E kidney epithelial cells", "assay": "Cell proliferation, [3H]thymidine incorporation, NRK-52E", "type": "cell-based", "conditions": "subconfluent, 24 h", "description": "(§1) Several cell lines are tested for BMP-9 responsiveness in vitro. Cell proliferation, as indicated by [^3 H]thymidine incorporation, is determined in cell lines derived from kidney and lung. Cell proliferation is determined by measuring [^3 H]thymidine incorporation in subconfluent cells treated for 24 h with or without growth factors. NRK-52E (ATCC CRL 1571), WI-38 (ATCC CCL-75), CCD-11Lu (ATCC CCL-202), CCD-16Lu (ATCC CCL-204), and A-549 (ATCC CCL-185) cell lines are placed at 10^4 cells/well in 96 well plates and assayed for [^3 H]thymidine incorporation as described above. IMCD-3 cells (ATCC #CRL-2123) are cultured in a collagen matrix as described by Barros et al., PNAS USA 92:4412-4416 (1995), and treated with growth factors for 6 days to allow tubule formation."}, "[3]": {"assay": "Ectopic bone formation in vivo (implant)", "design": "species or system rat", "conditions": "25 μg/implant, after 10 days of implantation", "description": "A modified version of the rat bone formation assay described in Sampath and Reddi, Proc. Natl. Acad. Sci. USA 80:6591-6595 (1983) is used to evaluate bone and/or cartilage activity of the BMP proteins. This modified assay is herein called the Rosen-modified Sampath-Reddi assay. The ethanol precipitation step of the Sampath-Reddi procedure is replaced by dialyzing (if the composition is a solution) or diafiltering (if the composition is a suspension) the fraction to be assayed against water. The solution or suspension is then redissolved in 0.1% TFA, and the resulting solution added to 20mg of rat matrix. A mock rat matrix sample not treated with the protein serves as a control. This material is frozen and lyophilized and the resulting powder enclosed in #5 gelatin capsules. The capsules are implanted subcutaneously in the abdominal thoracic area of 21-49 day old male Long Evans rats. The implants are removed after 7-14 days. […]\nThe other half of each implant is fixed and processed for histological analysis. […] glycolmethacrylate sections are stained with Von Kossa and acid fuschin to score the amount of induced bone and cartilage formation present in each implant. […] In a modified scoring method, three non-adjacent sections are evaluated from each implant and averaged. […]"}, "IMCD-3 cells": {"tested_on": "IMCD-3 cells", "assay": "IMCD-3 cell condensation and tubulogenesis in collagen matrix", "type": "cell-based", "conditions": "IMCD-3 cells in 3-dimensional collagen gel, 100 ng/ml, 6 days, serum-free", "description": "as §1\nIn contrast, BMP-9 appeared to stimulate proliferation in several fibroblast cell lines derived from lung. […] The effect of rhBMP-9 on tubulogenesis was examined in IMCD-3 cells, another epithelial kidney cell line. […] It is therefore contemplated that both lung and kidney cells are physiological targets for BMP-9."}, "primary rat hepatocytes": {"tested_on": "primary rat hepatocytes", "assay": "Primary rat hepatocyte 3H-thymidine incorporation", "type": "cell-based", "description": "As a first indication of BMP-9 effects on confluent, serum starved HepG2 cells, cell proliferation is examined as determined by ^3 H-thymidine incorporation and cell counting. HepG2 cells are plated at […] in 96 well plates and cultured for 48 hours in DME/0.1% FCS to synchronize the cell cycle are treated for 24 hours with or without BMP-9 in the presence of 0.1% FCS. In ^3 H-thymidine incorporation assays, ^3 H-thymidine was included during the last 4 hours of treatment and cellular DNA was collected with a 96 well plate cell harvester. Proliferation was assayed by quantifying ethanol-precipitable ^3 H-thymidine incorporation by liquid scintillation counting. For cell counting assays, cells were trypsinized and counted with a hemacytometer. […] BMP-9 stimulates ^3 H-thymidine incorporation in HepG2 cells approximately five fold.\nTo determine if this proliferative effect of BMP-9 was unique to the HepG2 liver tumor cell line, primary rat hepatocytes were tested for effects of BMP-9 on ^3 H-thymidine incorporated as shown in FIG. 4."}},
  "data": [
    {"molecule": "B1", "values": [
      {"measurement": "proteoglycan synthesis", "setting": "[1]; 100 ng/ml, calf articular cartilage explants", "value": "significantly more active in stimulating proteoglycan synthesis"},
      {"measurement": "proteoglycan synthesis versus control", "setting": "[1]; dose of 10 ng/ml, p<0.05, calf articular cartilage explants", "value": "stimulates proteoglycan synthesis above control levels"},
      {"measurement": "cell proliferation ([3H]thymidine incorporation)", "setting": "[2]", "value": "inhibited proliferation"},
      {"measurement": "ectopic bone formation", "setting": "[3]", "value": "inducing cartilage and bone tissue"},
      {"measurement": "cell condensation and tubulogenesis", "setting": "IMCD-3 cells", "value": "did not induce tubules and inhibited the cell condensations and tubule formation observed under control conditions"},
      {"measurement": "3H-thymidine incorporation", "setting": "primary rat hepatocytes; confluent primary rat hepatocytes", "value": "confluent primary hepatocytes did not"},
      {"measurement": "3H-thymidine incorporation", "setting": "primary rat hepatocytes; subconfluent primary rat hepatocytes, 36 hours, serum-free", "value": "stimulated ^3 h-thymidine incorporation in primary hepatocytes, although not as markedly as EGF"}
    ]}
  ]
}
